In paper PMC4104964:

Molecular target: yeast Mediator (yMED), core, devoid of the CKM (yeast (endogenous in strain BJ2168)) (UniProt P38782)
Test: single-particle EM

- fraction of single yMED images with GST-CTD density: 10%
Substance: recombinant GST-labeled CTD of RNAPII (from UniProt P04050 1-1733) (domain or fragment)
